In patent US20160139118A1, “NOVEL ASSAY” (GLAXOSMITHKLINE INTELLECTUAL PROPERTY (NO.2) LIMITED, priority 2013, published 2016):

Tests used:
[1] = target: Complement C3b (Complement Technology) (human) (UniProt P01024); assay: cell-based or functional assay
CFI = target: T1, CFI (Homo sapiens, UniProt P05156); assay: Effect of treating agents on CFI bioactivity in cofactor assay; type: biochemical; conditions: 1 μg/mL CFI, 10 μM BAM, 37° C. 40 min with agent; then 80 μg/mL CFH and C3b
T1 construct: purified serum CFI protein which has been successfully used in cofactor assays; purchased Complement Technology Inc (Tyler, Tex.); host or cells: human serum
T1 sequence (P05156 19-335 limits assumed): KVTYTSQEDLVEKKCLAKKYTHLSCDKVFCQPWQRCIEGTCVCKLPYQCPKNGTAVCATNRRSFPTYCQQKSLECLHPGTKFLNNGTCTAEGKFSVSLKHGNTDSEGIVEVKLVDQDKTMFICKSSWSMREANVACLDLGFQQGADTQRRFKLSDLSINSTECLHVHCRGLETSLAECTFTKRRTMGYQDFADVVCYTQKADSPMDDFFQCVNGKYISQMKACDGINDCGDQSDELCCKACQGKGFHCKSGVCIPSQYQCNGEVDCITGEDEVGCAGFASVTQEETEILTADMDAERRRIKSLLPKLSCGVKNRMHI
T1 sequence (P05156 340-583 limits assumed): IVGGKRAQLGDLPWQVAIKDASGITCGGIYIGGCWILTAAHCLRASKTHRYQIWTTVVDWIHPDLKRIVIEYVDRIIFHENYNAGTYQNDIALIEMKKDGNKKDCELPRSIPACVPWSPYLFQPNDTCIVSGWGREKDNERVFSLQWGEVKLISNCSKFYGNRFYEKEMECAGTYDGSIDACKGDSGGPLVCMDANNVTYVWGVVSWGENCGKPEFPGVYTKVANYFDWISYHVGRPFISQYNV
Experimental: (§1) FIG. 11 Effect of Tween 20, Triton X-100 and Guanidine on BAM Activity. The effect of Tween 20, Triton X-100, and Guanidine on the activity of BAM was tested in the cofactor assay, where 1 μg/mL of CFI and 10 μM BAM was incubated at 37° C. for 40 min in the presence of the treating agents, then 80 μg/mL CFH and 80 μg/mL C3b was added and the reactions were lasted for 1 hr 20 min at 37° C. The iC3b concentration in the reaction was then measured using the ELISA method.
(§2) As shown in Section 3.10, mouse isotype control IgGs, especially mIgG2b, caused significant background in terms of increasing CFI bioactivity by potential interaction with BAM at the level of the hinge. To reduce such an effect, multiple agents such as Tween 20, Triton X-100, Guanidine and human serum albumin were tested in the cofactor assays to see if they will interfere with CFI bioactivity or BAM activity first. […] However, the effect didn't seem to be differential (FIG. 11). Taken together, none of the agents tested so far could resolve the IgG BAM binding issue. Lastly, another strategy was tested by reversing the order of addition of the reagents. Normally, BAM and anti-BAM antibody were incubated first, then CFI was added to the mixture, CFH and C3b was added last. […]

BAM = target: T2, BAM (Homo sapiens, UniProt P05067); assay: Effect of treating agents on BAM inhibitory activity in cofactor assay; type: biochemical; conditions: 1 μg/mL CFI, 10 μM BAM, 37° C. 40 min with agent; then 80 μg/mL CFH and C3b
T2 construct: Beta amyloid recombinant peptide (1-42) (Ultra Pure, TFA Form) was purchased from Covance; purchased Covance
Experimental: as §1, §2

[2] = target: Complement C3b (Complement Technology), P01024
C3b [3] = target: T3, C3b (Homo sapiens, UniProt P01024); assay: Cofactor assay of bioactivity of purified and recombinant CFI; type: biochemical; conditions: for estimated EC50 of CFI (95% limits in parentheses): three experiments in triplicate, CFH and C3b, 37° C. 1 hr
T3 construct: Factor I, Factor H, C3b, and iC3b proteins were purchased; purchased Complement Technology Inc (Tyler, Tex.)
Experimental: The bioactivity measurements were conducted in triplicate and run on three occasions. Both CFI stock solutions were diluted in a 1/3 log series into 8 substock solutions starting at […] CFI. To maintain the CFI bioactivity in low concentration, 10 μg/mL CFH was used. Cofactor assays were set up by mixing […] of 2×CFI substock solutions with […] of CFH and C3b 2× mixture at a final concentration of […] for each reaction. The reaction mixtures were incubated at 37° C. for 1 hr, then the iC3b production in reactions was evaluated by a specific ELISA.
In the assay, 1 mU of CFI bioactivity is defined as the inverse of the amount of CFI that generates half of the maximal concentration of iC3b that can be produced (EC50). To obtain CFI bioactivity of a sample the following calculation is applied: 1/(EC50 of CFI in μg). This equation will result in CFI bioactivity levels expressed as U/μg of CFI. […] The model fitted to the data also predicted the EC50 recombinant to purified ratio.
This value provides the amount of CFI in ng that generates ½ the maximal amount of iC3b. Dividing these amounts by 1000 we convert the numbers to μg.

C3b [4] = target: T3, C3b; assay: CFI dose response in cofactor assay (conversion of C3b into iC3b); type: biochemical
Experimental: A mixture of CFH (10-80 μg/mL) and C3b (80-150 μg/mL) was added into the tubes containing the CFI or BAM/CFI mixture. After a 30 minute-incubation at 37° C., the reaction mixtures were directly diluted into Assay Buffer and used for ELISA detection of iC3b. The detailed procedures other than indicated below were performed following the instruction provided with the ELISA kit. The diluted reaction mixtures and standards were applied to the 8-well strips at 60 μL per well and incubated at RT for 30 min. After washing 5 times in a plate washer with an in house-made washing buffer (10 mM Tris, 60 mM NaCl, 0.1% Tween 20, pH7.2), the 8-well strips were loaded with 50 μL of the HRP-anti-human iC3b conjugates per well and incubated at RT for 30 min. At the end of incubation, the 8-well strips were washed in the plate washer 5 times and incubated with 100 μL of the HRP substrates provided in the kit for additional 30 min. The reaction was stopped by addition of 50 μL Stop Buffer. The absorption at 405 nm was measured within 10 minutes. […] To answer these questions, a CFI dose response study was conducted where CFI was tested in a range of 10 ng/mL to 30 μg/mL in the presence or absence of 200 μM BAM1-42 (Lot 2, aged for 7 days without sonication) in the cofactor assay. […]

T2 sequence (P05067 672-713 limits assumed): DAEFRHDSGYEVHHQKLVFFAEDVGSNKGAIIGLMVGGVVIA

With “Complement factor I, purified human serum protein (Complement Technology) (from UniProt P05156 19-583) (enzyme)” the CFI bioactivity (inverse of EC50 in µg) [1] was 3070 U/µg of CFI, the EC50 of CFI in cofactor assay (conversion of C3b into iC3b, with CFH), PBS control [1] was 0.686 µg/mL and the EC50 of CFI in cofactor assay (iC3b generation, 80 CFH and C3b, 1 hr), three experiments [1] was 0.0326 µg/mL.

In the case of `N=C(N)N` [Guanidine], the “effect on CFI bioactivity (in words)” value (CFI) is reported as “significantly reduced” and the “effect on inhibitory activity of BAM (in words)” value (BAM) is reported as “significantly reduced”.

In the case of Triton X-100, the “effect on CFI bioactivity (in words)” value (CFI) is reported as “didn't affect CFI bioactivity” and the “effect on inhibitory activity of BAM (in words)” value (BAM) is reported as “abolished the inhibitory activity of BAM completely”.

“Recombinant complement factor I (GSK) (from UniProt P05156 19-583) (enzyme)” was tested, and the CFI bioactivity (inverse of EC50 in µg) [1] was 1640 U/µg of CFI, the EC50 of CFI in cofactor assay (iC3b generation, 80 CFH and C3b, 1 hr), three experiments [1] was 0.0608 µg/mL and the EC50 recombinant to purified ratio [1] was 1.8.

B1: Complement factor I, purified human serum protein (Complement Technology) (protein)
chain: KVTYTSQEDLVEKKCLAKKYTHLSCDKVFCQPWQRCIEGTCVCKLPYQCPKNGTAVCATNRRSFPTYCQQKSLECLHPGTKFLNNGTCTAEGKFSVSLKHGNTDSEGIVEVKLVDQDKTMFICKSSWSMREANVACLDLGFQQGADTQRRFKLSDLSINSTECLHVHCRGLETSLAECTFTKRRTMGYQDFADVVCYTQKADSPMDDFFQCVNGKYISQMKACDGINDCGDQSDELCCKACQGKGFHCKSGVCIPSQYQCNGEVDCITGEDEVGCAGFASVTQEETEILTADMDAERRRIKSLLPKLSCGVKNRMHIRRKRIVGGKRAQLGDLPWQVAIKDASGITCGGIYIGGCWILTAAHCLRASKTHRYQIWTTVVDWIHPDLKRIVIEYVDRIIFHENYNAGTYQNDIALIEMKKDGNKKDCELPRSIPACVPWSPYLFQPNDTCIVSGWGREKDNERVFSLQWGEVKLISNCSKFYGNRFYEKEMECAGTYDGSIDACKGDSGGPLVCMDANNVTYVWGVVSWGENCGKPEFPGVYTKVANYFDWISYHVGRPFISQYNV
B1 was tested, and the “amount of CFI needed to cleave 50% of the available C3b (re-analysis, 4-parameter logistic)” value [2] was “The amount of CFI needed to cleave 50% of the available C3b was approximately 632 ng/ml”.

B2: recombinant CFI: CFI generated by recombinant means (GSK) (protein)
chain: B1 chain
In the case of B2, the “EC50 recombinant to purified ratio” value (C3b [3]; model fitted to data of three experiments, P<0.001 vs 1) is reported as 1.8 (1.5-2.2), the “times lower bioactivity than material purified from serum” value (C3b [3]; overall result) is reported as “approximately 2 times” and the “estimated EC50 of CFI (95% limits in parentheses)” value (C3b [3]) is reported as 60.8 (21.6-168.0) ng/ml.

B3: purified CFI: CFI purified from serum (CompTech) (protein)
chain: B1 chain
B3 was tested, and the “estimated EC50 of CFI (95% limits in parentheses)” value (C3b [3]) was 32.6 (9.3-108.8) ng/ml.

B4: CFI: Complement factor I protein purchased from Complement Technology Inc (protein)
chain: B1 chain
In the case of B4, the “EC50 of CFI (PBS control, no BAM)” value (C3b [4]; CFI 10 ng/mL to 30 μg/mL, absence of BAM1-42) is reported as 0.686 µg/mL and the “amount of CFI needed to cleave 50% of the available C3b” value (C3b [4]; no BAM, reanalysis with reparametrized 4-parameter logistic equation) is reported as “approximately 632 ng/ml”.

B5: Mouse plasma complement factor I (protein)
chain: RSPSASDLPQEELVDQKCLLQKYTHRSCNKVFCQPWQRCIEGTCICKLPYQCPRAGTPVCAMNGRSYPTYCHQKSFECLHPEIKFSHNGTCAAEGKFNVSLIYGRTKTEGLVQVKLVDQDERMFICKNSWSMAEANVACVDLGFPLGVRDIQGSFNISGNLHINDTECLHVHCRGVETSLAECAFTKRRTELSNGLAGVVCYKQDADFPTSLSFQCVNGKHIPQEKACNGVNDCGDQSDELCCKGCRGNASLCKSGVCIPDQYKCNGEVDCITGEDESRCEEDRQQNIPKGLARSAQGEAEIETEETEMLTPGMDNERKRIKSLLPKLSCGVKRNTHTRRKRVIGGKPANVGDYPWQVAIKDGQRITCGGIYIGGCWILTAAHCVRPSRAHSYQVWTALLDWLKPNSQLGIQTVKRVIVHEKYNGATFQNDIALIEMKMHTGKKECELPNSVPACVPWSPYLFQPNDRCIISGWGRGKDNQKVYSLRWGEVDLIGNCSQFYPDRYYEKEMQCAGTRDGSIDACKGDSGGPLVCEDINNVTYVWGIVSWGENCGKPEFPGVYTRVANYFDWISYHVGRSLVSQHNV
For B5, the “cofactor assay with mouse plasma as source of CFI, human CFH and C3b” value [2] was “mouse plasma CFI indeed can convert human C3b into iC3b in the presence of human CFH albeit with 10-times less activity”.
